Reference: patent US20190307868A1

Columns and labels:
Details in all cases: remark: other sources report otherwise
HLA-B08:01 (human) [1] = test: peptide-MHC-I complex dissociation half-life, 125I-b2m, 37 C
HLA-B08:01 (human) [2] = test: competitive inhibition of 125I-labeled probe peptide binding to purified HLA class I
HLA-A02:01 (human) [3] = test: pMHC-I dissociation half-life, 125I-b2m
HLA-A02:01 (human) [4] = test: competition with 125I-labelled probe peptide, purified HLA

Row | Binder | Stability (T1/2 (h)) (HLA-B08:01 (human) [1]) [h] | IC50 (HLA-B08:01 (human) [2]) [nM] | Stability (T1/2 (h)) (HLA-A02:01 (human) [3]) [h] | IC50 (HLA-A02:01 (human) [4]) [nM]
1 | WLHKRGKYI [… (AKT1, E17K)] | 1.3 | 417 |  | 
2 | FLPSTLKSL [… (ESR1, S463P)] | 0 | 1970 |  | 
3 | LVVVGACGV |  |  | 0.6 | 1210
4 | LVVVGAVGV |  |  | 0.6 | 
5 | SVCFFFFSV [… (CNOT1(+1))] | 0 |  |  | 

The remaining lines, values ahead:

Row | Stability (T1/2 (h)) (HLA-B08:01 (human) [1]) [h] | IC50 (HLA-B08:01 (human) [2]) [nM] | Stability (T1/2 (h)) (HLA-A02:01 (human) [3]) [h] | IC50 (HLA-A02:01 (human) [4]) [nM] | Binder
6 | 0 |  |  |  | QLIMQLMPF [… (EGFR, T790M)]
7 | 0 |  |  |  | SLPRFILMEL [… (ALK, L1196M)]
8 |  |  | 0 | 1190 | LVVVGADGV
